Reference: patent US8663616B2, “Enzymatic peracid generation for use in oral care products” (E I du Pont de Nemours and Company, priority 2010, dated 2014)
Each block holds one molecule with its values, some of them ahead of it.

Columns and labels:
Assay type in all cases: biochemical
[1] = P. fluorescens perhydrolase constructs, peracetic acid when bound to hydroxyapatite particles (Example 10); conditions: 100 mg HAP particles exposed to 20 μM enzyme; 300 mM H2O2, 1 M sodium acetate pH 5.5, 10 min, 37° C.; no enzyme 17
Experimental: (§1) The detection of peracetic acid followed the method described in Pinkernell et. al. (Analyst, 1997, 122, 567) using colorimetric detection of 2,2′-azino-bis(3-ethylbenzothiazoline(-6-sulfonate (ABTS) oxidation by peracetic acid. Following the formation of peracetic acid with the addition of triacetin and hydrogen peroxide, 90 μL of solution was added to 10 μL of 0.1 M H3PO4 in a well plate. 50 μL of 1 M acetic acid, 50 μL of 0.5 g/L ABTS and 50 μL of 0.002 g/L of KI was added. The solution was allowed to develop for 5 min. The absorbance of the solution was measured at 405 nm using a microplate reader. The peracetic acid concentration was calculated based on a standard curve developed simultaneously using peracetic acid reagent solution.
(§2) For P. fluorescens constructs, the solution activity was measured by mixing a 1 mL solution containing 2 μM enzyme, 100 mM H2O2 in a 1 M sodium acetate buffer, pH 5.5. The solution was incubated at 37° C. for 30 min. As described in Example 7, the reaction was stopped by removing a portion to H3PO4 and a 10 μL aliquot was removed and diluted for detection via ABTS oxidation. For assessment of binding and activity on hydroxyapatite, the P. fluorescens enzymes were exposed to hydroxyapatite particles at 20 μM in 10 mM phosphate buffer as described in Example 8 using 100 mg of buffer washed HAP particles (Macro-prep Ceramic Hydroxyapatite TYPE I, 80 μm size BioRad, Hercules, Calif.). Following centrifugation and removal of the enzyme solution, the particles were rinsed with phosphate butter by centrifuging and removing the supernatant. A 200 μL solution containing 300 mM H2O2 in 1 M sodium acetate buffer, pH 5.5 was added to the particles and incubated at 37° C. for 10 min. As described in Example 7, the reaction was stopped by removing a portion to H3PO4 and a 10 μL aliquot was removed and diluted for detection via ABTS oxidation.

[2] = P. fluorescens perhydrolase constructs, peracetic acid in solution (Example 10); conditions: 2 μM enzyme, 100 mM H2O2, 1 M sodium acetate pH 5.5, 30 min, 37° C.; no enzyme 9
Experimental: as §1, §2

[3] = M. smegmatis aryl esterase constructs, peracetic acid in solution (Example 10); conditions: 0.5 μM enzyme, 100 mM triacetin, 100 mM H2O2, pH 7.2, 30 min, 37° C.; no enzyme 158
Experimental: as §1
For aryl esterase constructs, the enzyme activity in solution was measured by making a 1 mL solution of 0.5 μM of each enzyme, 100 mM triacetin, and 100 mM H2O2 in 100 mM phosphate buffer, pH 7.2. The solution was mixed and incubated for 30 min, at 37° C. As described in Example 7, the reaction was stopped by removing a portion to H3PO4 and a 10 μL aliquot was removed and diluted for detection via ABTS oxidation.

[4] = M. smegmatis aryl esterase constructs, peracetic acid when bound to hydroxyapatite particles (Example 10); conditions: 33 mg HAP particles exposed to 10 μM enzyme; 100 mM triacetin, 100 mM H2O2, 30 min, 37° C.; no enzyme 323
Experimental: as §1
For assessment of binding and activity on hydroxyapatite, the aryl esterase enzymes were exposed to hydroxyapatite particles as described in Example 8 using 33 mg of buffer washed HAP particles (Macro-prep Ceramic Hydroxyapatite TYPE I, 80 μm size BioRad, Hercules, Calif.) using a 10 μM solution in 10 mM phosphate buffer. Following centrifugation and removal of the enzyme solution, the particles were rinsed with phosphate butter by centrifuging and removing the supernatant. A 200 μL solution containing 100 mM triacetin, 100 mM H2O2 and 100 mM phosphate buffer, pH 7.2 was added to the particles and incubated at 37° C. for 30 min. As described in Example 7, the reaction was stopped by removing a portion to H3PO4 and a 10 μL aliquot was removed diluted for detection via ABTS oxidation.

B1: EZ-43: Pfl-link1-DenP308-H6, SEQ ID NO: 467 (protein)
chain: MSTFVAKDGTQIYFKDWGSGKPVLFSHGWPLDADMWEYQMEYLSSRGYRTIAFDRRGFGRSDQPWTGNDYDTFADDIAQLIEHLDLKEVTLVGFSMGGGDVARYIARHGSARVAGLVLLGAVTPLFGQKPDYPQGVPLDVFARFKTELLKDRAQFISDFNAPFYGINKGQVVSQGVQTQTLQIALLASLKATVDCVTAFAETDFRPDMAKIDVPTLVIHGDGDQIVPFETTGKVAAELIKGAELKVYKDAPHGFAVTHAQQLNEDLLAFLKRGPGSGGAGSPGSAGGPGSDPTKPPRTPTANTSRPHHNFGSGGGGSPHHHHHH
Peracetic acid (ppm) On Hydroxyapatite [1]: 68 ppm | Peracetic acid (ppm) In Solution [2]: 79 ppm

B2: EZ-39: ArE-link1-(GK)5-H6, SEQ ID NO: 463 (protein)
chain: MAKRILCFGDSLTWGWVPVEDGAPTERFAPDVRWTGVLAQQLGADFEVIEEGLVARTTNIDDPTDPRLNGASYLPSCLATHLPLDLVIIMLGTNDTKAYFRRTPLDIALGMSVLVTQVLTSAGGVGTTYPAPKVLVVSPPPLAPMPHPWFQLIFEGGEQKTTELARVYSALASFMKVPFFDAGSVISTDGVDGIHFTEANNRDLGVALAEQVRSLLGPGSGGAGSPGSAGGPGSGKGKGKGKGKHHHHHH
Peracetic acid (ppm) In Solution [3]: 1366 ppm | Peracetic acid (ppm) On Hydroxyapatite [4]: 3553 ppm

B3: EZ-41: Pfl-link1-H6, SEQ ID NO: 465 (protein)
chain: MSTFVAKDGTQIYFKDWGSGKPVLFSHGWPLDADMWEYQMEYLSSRGYRTIAFDRRGFGRSDQPWTGNDYDTFADDIAQLIEHLDLKEVTLVGFSMGGGDVARYIARHGSARVAGLVLLGAVTPLFGQKPDYPQGVPLDVFARFKTELLKDRAQFISDFNAPFYGINKGQVVSQGVQTQTLQIALLASLKATVDCVTAFAETDFRPDMAKIDVPTLVIHGDGDQIVPFETTGKVAAELIKGAELKVYKDAPHGFAVTHAQQLNEDLLAFLKRGPGSGGAGSPGSAGGPGSHHHHHH
Peracetic acid (ppm) On Hydroxyapatite [1]: 18 ppm

B4: EZ-40: ArE-link1-DenP308-H6, SEQ ID NO: 464 (protein)
chain: MAKRILCFGDSLTWGWVPVEDGAPTERFAPDVRWTGVLAQQLGADFEVIEEGLVARTTNIDDPTDPRLNGASYLPSCLATHLPLDLVIIMLGTNDTKAYFRRTPLDIALGMSVLVTQVLTSAGGVGTTYPAPKVLVVSPPPLAPMPHPWFQLIFEGGEQKTTELARVYSALASFMKVPFFDAGSVISTDGVDGIHFTEANNRDLGVALAEQVRSLLGPGSGGAGSPGSAGGPGSDPTKPPRTPTANTSRPHHNFGSGGGGSPHHHHHH
Peracetic acid (ppm) In Solution [3]: 3605 ppm | Peracetic acid (ppm) On Hydroxyapatite [4]: 2476 ppm

B7: EZ-42: Pfl-link1-(GK)5-H6, SEQ ID NO: 466 (protein)
chain: MSTFVAKDGTQIYFKDWGSGKPVLFSHGWPLDADMWEYQMEYLSSRGYRTIAFDRRGFGRSDQPWTGNDYDTFADDIAQLIEHLDLKEVTLVGFSMGGGDVARYIARHGSARVAGLVLLGAVTPLFGQKPDYPQGVPLDVFARFKTELLKDRAQFISDFNAPFYGINKGQVVSQGVQTQTLQIALLASLKATVDCVTAFAETDFRPDMAKIDVPTLVIHGDGDQIVPFETTGKVAAELIKGAELKVYKDAPHGFAVTHAQQLNEDLLAFLKRGPGSGGAGSPGSAGGPGSGKGKGKGKGKHHHHHH
Peracetic acid (ppm) On Hydroxyapatite [1]: 63 ppm | Peracetic acid (ppm) In Solution [2]: 64 ppm

Continued, values first:

Peracetic acid (ppm) On Hydroxyapatite [4]: 927 ppm
B5: EZ-37: ArE-link1-H6, SEQ ID NO: 461 (protein)
chain: MAKRILCFGDSLTWGWVPVEDGAPTERFAPDVRWTGVLAQQLGADFEVIEEGLVARTTNIDDPTDPRLNGASYLPSCLATHLPLDLVIIMLGTNDTKAYFRRTPLDIALGMSVLVTQVLTSAGGVGTTYPAPKVLVVSPPPLAPMPHPWFQLIFEGGEQKTTELARVYSALASFMKVPFFDAGSVISTDGVDGIHFTEANNRDLGVALAEQVRSLLGPGSGGAGSPGSAGGPGSHHHHHH

Peracetic acid (ppm) In Solution [3]: 2697 ppm | Peracetic acid (ppm) On Hydroxyapatite [4]: 452 ppm
B6: EZ-36: M. smegmatis aryl esterase ArE S54V, untargeted, SEQ ID NO: 460 (protein, listed as Mycobacterium smegmatis)
chain: MAKRILCFGDSLTWGWVPVEDGAPTERFAPDVRWTGVLAQQLGADFEVIEEGLVARTTNIDDPTDPRLNGASYLPSCLATHLPLDLVIIMLGTNDTKAYFRRTPLDIALGMSVLVTQVLTSAGGVGTTYPAPKVLVVSPPPLAPMPHPWFQLIFEGGEQKTTELARVYSALASFMKVPFFDAGSVISTDGVDGIHFTEANNRDLGVALAEQVRSLL

Peracetic acid (ppm) On Hydroxyapatite [1]: 97 ppm | Peracetic acid (ppm) In Solution [2]: 58 ppm
B8: EZ-44: Pfl-link1-HC263-H6, SEQ ID NO: 479 (protein)
chain: MSTFVAKDGTQIYFKDWGSGKPVLFSHGWPLDADMWEYQMEYLSSRGYRTIAFDRRGFGRSDQPWTGNDYDTFADDIAQLIEHLDLKEVTLVGFSMGGGDVARYIARHGSARVAGLVLLGAVTPLFGQKPDYPQGVPLDVFARFKTELLKDRAQFISDFNAPFYGINKGQVVSQGVQTQTLQIALLASLKATVDCVTAFAETDFRPDMAKIDVPTLVIHGDGDQIVPFETTGKVAAELIKGAELKVYKDAPHGFAVTHAQQLNEDLLAFLKRGPGSGGAGSPGSAGGPGSPSAQSQLPDKHSGLHERAPQRYGPEPEPEPEPIPEPPKEAPVVIEKPKPKPKPKPKPPAHDHKNQKETHQRHAAGSGGGGSPHHHH
